Results published in patent US12180473B2, “Chimeric RNA-driven genomic rearrangement in mammalian cells” (priority 2018, dated 2024).
Entries after “also recorded” stand apart in the source; their conditions may differ.

B1: Sense-D1: input RNA, SEQ ID NO: 33 (nucleic acid)
sense: TGTGCTCGCTTCGGCAGCACATATACTAACATTGGAACGATCCTGCAGCGGGTGTGAGGAGCGCGGCGCGGCAGGTGAGTGCGCCCGAGGGTCGAGCGCTCAGGGATTCTGGACACTTATCCCTTCATCTTTCTTCTGTCTCTTCCCTCTACCAGCCTCTCTCTCTCTGTCTCTC
B2: Antisense-1: input RNA, SEQ ID NO: 4 (nucleic acid)
antisense: TCAGATCGCCTGGAGACGCCATCCACGCTGTTTTGACCTCCATAGAAGACACCGGGACCGATCCAGCCTCCCCTCGAAGCTGATCCTGAGAACTTCAGGCTCCTGGGCAACGTGCTGGTCTGTGTGCTGGCCCATCACTTTGGCAAAGAATTCCTTGAGCCATTCACCTGGCTAGGGTTACATTCCATTTTGATGGTGACCCTGGCTGGGGGTTGAGACAGCCAATCCTGCTGAGGGACGCGTGGGCTCATCTTGGAAGTCTGTCCATAGTCGCTGGAGGAGGACGCGGTCATCTCTGTCTTAGCCAGGTGTGGCGTTCCGTAGGCACACTCAAACAACGACTGGTCCTCACTCACAACTGATAAGGCTTCCTGCCGCGCTCCAGGCGGCGCTCCCCGCCCCTCGCCCTCCGCCTCCGCCTCCGCCTCCTGCTTAGCTCGCGCCTACTCAAGCTTATCGATACCGTCGACCTCGAGGGCCCAGATCTAATTCACCCCACCAGTGCAGGCTGCCTATCAGAAAGTGGTGGCTGGTGTGGCTAATGCCCTGGCCCACAAGTATCACTAAGCTCGCTTTCTTGCTGTCCAATTTCTATTAAAGGTTCCTTTGTTCCCTAAGTCCAACTACTAAACTGGGGGATATTATGAAGGGCCTTCCGGAGCATCTGGATTCTGCCTAATAAAAAACATTTATTTTCATTGCAAAAAAA
B3: Antisense-B1: input RNA, SEQ ID NO: 15 (nucleic acid)
antisense: TGTGCTCGCTTCGGCAGCACATATACTAACATTGGAACGATCCTGCAGTGGCCTGAGCCTTGAAGAATGGGGTGTACTGGGTAAATCAAAATGGTGGGGAGCATTTCCAGATGGAGAAACTGCCTCACCTGCCGCGCTCCAGGCGGCGCTCCCCGCCCCTCGCCCTCCGCCTCCG
B4: Antisense-G1: input RNA, SEQ ID NO: 26 (nucleic acid)
antisense: TGTGCTCGCTTCGGCAGCACATATACTAACATTGGAACGATCCTGCAGTTTATTCATGAGAAAATTCTGGCACAATGGAAAACCCTGGCAAGCAAAAGATAGGGGCAGCAGATGTCCTGGCCTACAAAGAACTCCAAGCCCATCGTCCCTAGAAAGCATGGTCTCCCATGACCCC
B5: Antisense-D2: input RNA, SEQ ID NO: 22 (nucleic acid)
antisense: TGTGCTCGCTTCGGCAGCACATATACTAACATTGGAACGATCCTGCAGGAGAGACAGAGAGAGAGAGGCTGGTAGAGGGAAGAGACAGAAGAAAGATGAAGGGATAAGTGTCCAGAATCCCTGCCCAGCACTCTCCCAGCACCCCGGGAGGCGCCCTGCCCGGCTGGCCCCAGCG
B6: Antisense-5A: input RNA, SEQ ID NO: 13 (nucleic acid)
antisense: TGTGCTCGCTTCGGCAGCACATATACTAACATTGGAACGATCCTGCAGGCCGCTCACCTGCCGCGCTCCAGGCGGCGCTCCCCGCCCCTCGCCCTCCGCCAGACAGGAGTGAGAGATGGAAGCTCGCGCCTACTC
B7: Sense-B1: input RNA, SEQ ID NO: 31 (nucleic acid)
sense: TGTGCTCGCTTCGGCAGCACATATACTAACATTGGAACGATCCTGCAGCGGAGGCGGAGGGCGAGGGGCGGGGAGCGCCGCCTGGAGCGCGGCAGGTGAGGCAGTTTCTCCATCTGGAAATGCTCCCCACCATATTGATTTACCCAGTACACCCCATTCTTCAAGGCTCAGGCCA
B8: Antisense-7: input RNA, SEQ ID NO: 10 (nucleic acid)
antisense: TGTGCTCGCTTCGGCAGCACATATACTAACATTGGAACGATCCTGCAGCTTGAGCCATTCACCTGGCTAGGGTTACATTCCATATTGATGGTGACCCTGGCTGGGGGTTGAGACAGCCAATCCCGGACCCCGAGCCGGGACCCTGGTACCGGCGCCGCTCACCTGCCGCGCTCCAAGACAGGAGTGAGAGATGGAAGCTCGCGCCTACTC
B9: Antisense-D1: input RNA, SEQ ID NO: 21 (nucleic acid)
antisense: TGTGCTCGCTTCGGCAGCACATATACTAACATTGGAACGATCCTGCAGGAGAGACAGAGAGAGAGAGGCTGGTAGAGGGAAGAGACAGAAGAAAGATGAAGGGATAAGTGTCCAGAATCCCTGAGCGCTCGACCCTCGGGCGCACTCACCTGCCGCGCCGCGCTCCTCACACCCG
B10: Antisense-5B: input RNA, SEQ ID NO: 14 (nucleic acid)
antisense: TGTGCTCGCTTCGGCAGCACATATACTAACATTGGAACGATCCTGCAGCTTGAGCCATTCACCTGGCTAGGGTTACATTCCATATTGATGGTGACCCTGGCTGGGGGTTGAGACAGCCAATCC
modifications: input RNA, chemistry not given here
B11: Antisense-C3: input RNA, SEQ ID NO: 20 (nucleic acid)
antisense: TGTGCTCGCTTCGGCAGCACATATACTAACATTGGAACGATCCTGCAGGTCCTGGTAACACTATTCATGCACTAACAAGTTGGTTGCCAGTGAGACTTGATTATTATGACTCTGGGAGTGCTGCCCAGGCGGGGGCCGTGGAGGGCAGGCGGACTAGGAGCCAGCTTTGGGGACC
B12: Antisense-E1: input RNA, SEQ ID NO: 24 (nucleic acid)
antisense: TGTGCTCGCTTCGGCAGCACATATACTAACATTGGAACGATCCTGCAGAGGGTATTCAGTATTACTATTTGGCTTAGATAAGCTGGTAGTTACTTGCTAAAATTAATCTTTATTATAAAGCAGAAAGCCGCATTCTGACATCACTCTCCATGGACAAAGATTCTTCGCTTGATCA
B13: Sense-C1: input RNA, SEQ ID NO: 32 (nucleic acid)
sense: TGTGCTCGCTTCGGCAGCACATATACTAACATTGGAACGATCCTGCAGGGTCCCCAAAGCTGGCTCCTAGTCCGCCTGCCCTCCACGGCCCCCGCCTGGGGTTAGTGCATGAAGAGTGTTACCAGGACGGGGTCTACCCAGTGCTCATCTATGTCATAGGAAGAGCATGAGCTCA
B14: Antisense-F1: input RNA, SEQ ID NO: 25 (nucleic acid)
antisense: TGTGCTCGCTTCGGCAGCACATATACTAACATTGGAACGATCCTGCAGAATGGATGAATACATAAAATAAATTGTGGTGGATATATACAACGGAATATCATTTAGCCTTTATTATTATTGAGAACTGTGCCGAGCCGGGCAGGACAGGATGAGGTGGACCGAAGCGCCCAGGTGC
B15: Antisense-D3: input RNA, SEQ ID NO: 23 (nucleic acid)
antisense: TGTGCTCGCTTCGGCAGCACATATACTAACATTGGAACGATCCTGCAGTGAAGGGATAAGTGTCCAGAATCCCTGGATCTGGGATGGAATAAAGGATCTGGATGGTAAACGGAGAGTGCTGGGAGCGCTCGACCCTCGGGCGCACTCACCTGCCGCGCCGCGCTCCTCACACCCG
B16: Antisense-C1: input RNA, SEQ ID NO: 18 (nucleic acid)
antisense: TGTGCTCGCTTCGGCAGCACATATACTAACATTGGAACGATCCTGCAGTGAGCTCATGCTATTCCTATGACATAGATGAGCACTGGGTAGACCCCGTCCTGGTAACACTATTCATGCACTAACCCCAGGCGGGGGCCGTGGAGGGCAGGCGGACTAGGAGCCAGCTTTGGGGACC
B17: Antisense-B2: input RNA, SEQ ID NO: 16 (nucleic acid)
antisense: TGTGCTCGCTTCGGCAGCACATATACTAACATTGGAACGATCCTGCAGTGGCCTGAGCCTTGAAGAATGGGGTGTACTGGGTAAATCAAAATGGTGGGGAGCATTTCCAGATGGAGAAACTGCCCCTCCCCAGCCCGGACCCCGAGCCGGGACCCTGGTACCGGCGCCGCTCACC
B18: Antisense-3: input RNA, SEQ ID NO: 6 (nucleic acid)
antisense: TGTGCTCGCTTCGGCAGCACATATACTAACATTGGAACGATCCTGCAGCTTGAGCCATTCACCTGGCTAGGGTTACATTCCATATTGATGGTGACCCTGGCTGGGGGTTGAGACAGCCAATCCCGGACCCCGAGCCGGGACCCTGGTACCGGCGCCGCTCACCTGCCGCGCTCCAGGCGGCGCTCCCCGCCCCTCGCCCTCCGCCAGACAGGAGTGAGAGATGGAAGCTCGCGCCTACTC

System: TMPRSS2-ERG fusion
Test: RT-PCR detection of induced endogenous TMPRSS2-ERG fusion transcript in LNCaP cells expressing input RNA
Conditions: LNCaP cells transfected with input RNA plasmid, DHT for 3 days

Molecule	induction of endogenous TMPRSS2-ERG fusion transcript (RT-PCR)
B1	failed to induce fusion transcripts
B2	induced a clear band of 721 bp
B3	clearly induced fusion transcripts
B4	failed to induce fusion transcripts
B5	complete loss of induction
B6	loss of induction
B7	failed to induce fusion transcripts
B8	loss of induction; also recorded: did not
B9	clearly induced fusion transcripts
B10	loss of induction
B11	complete loss of induction
B12	failed to induce fusion transcripts
B13	failed to induce fusion transcripts
B14	failed to induce fusion transcripts
B15	complete loss of induction
B16	clearly induced fusion transcripts
B17	complete loss of induction
B18	unable to induce fusion

Same assay, conditions: LNCaP cells transfected with input RNA plasmid, DHT for 3 days; listed as antisense-3

Molecule	induction of endogenous TMPRSS2-ERG fusion transcript (RT-PCR)
B18	inability of antisense-3 to induce; also recorded: did not

Same assay, conditions: fusion gene partners TMPRSS2-ERG, LNCaP

Molecule	Cell line(s) identified
B2	LNCaP
B3	LNCaP
B9	LNCaP
B16	LNCaP
